One experiment concerns the target T1, human CSF1R-Fc ECD (human, UniProt P07333 20-517).
T1 construct: extracellular domain; not shown: Fc part of the coated reagent, not described
The experiment in a line: ELISA, plate coated with 2 µg/mL human CSF1R, monovalent antibody titrated, anti-human Fc HRP. The method, then:
Microplates were separately coated with 2 μg/mL of human or cyno CSF1R in 100 μL and blocked with 2% BSA. Serial dilutions of unlabeled monovalent human antibodies (11 points, 3-fold dilutions, 400 nM to […]) were transferred to the coated and blocked plates at 75 μL/well and incubated for 1 hr at room temperature. Plates were washed three times and incubated for 30 mins with anti-human Fc horseradish peroxidase conjugate followed by addition of TMB, a substrate of HRP. The plates were developed for 5 mins, stopped with 1M HCL and read at a wavelength of 450 nm.

The next experiment deals with T2, human CSF1R (human, UniProt P07333 20-972).
T2 construct: whole, on cells; also called hCSF1R
T2 sequence (P07333 20-972): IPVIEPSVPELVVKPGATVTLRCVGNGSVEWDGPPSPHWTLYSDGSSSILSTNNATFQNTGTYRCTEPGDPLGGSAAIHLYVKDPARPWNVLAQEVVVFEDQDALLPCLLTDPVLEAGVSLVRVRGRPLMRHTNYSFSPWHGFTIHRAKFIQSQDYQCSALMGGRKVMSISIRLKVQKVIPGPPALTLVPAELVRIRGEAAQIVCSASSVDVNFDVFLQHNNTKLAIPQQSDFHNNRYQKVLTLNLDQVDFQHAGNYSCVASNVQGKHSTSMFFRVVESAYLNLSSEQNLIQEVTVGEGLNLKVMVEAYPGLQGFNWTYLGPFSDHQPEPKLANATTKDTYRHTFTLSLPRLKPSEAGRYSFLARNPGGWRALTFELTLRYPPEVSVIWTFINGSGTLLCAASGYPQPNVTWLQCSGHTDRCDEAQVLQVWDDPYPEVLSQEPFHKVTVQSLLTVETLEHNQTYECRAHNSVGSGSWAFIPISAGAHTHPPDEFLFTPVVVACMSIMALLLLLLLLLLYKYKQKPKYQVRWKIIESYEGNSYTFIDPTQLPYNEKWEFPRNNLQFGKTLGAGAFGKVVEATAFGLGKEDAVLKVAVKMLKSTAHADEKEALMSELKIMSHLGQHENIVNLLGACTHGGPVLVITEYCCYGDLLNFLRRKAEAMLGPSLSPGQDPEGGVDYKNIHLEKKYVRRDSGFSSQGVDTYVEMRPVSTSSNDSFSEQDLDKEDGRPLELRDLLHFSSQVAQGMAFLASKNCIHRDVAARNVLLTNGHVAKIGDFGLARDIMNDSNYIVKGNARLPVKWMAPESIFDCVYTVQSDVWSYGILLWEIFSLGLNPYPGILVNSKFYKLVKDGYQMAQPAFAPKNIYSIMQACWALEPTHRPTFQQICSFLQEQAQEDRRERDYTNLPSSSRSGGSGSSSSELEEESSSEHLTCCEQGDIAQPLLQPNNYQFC
Description: flow cytometry on HEK-293T cells stably transduced with human CSF1R; anti-human Fc APC; percent APC positive. The method, then:
HEK-293T cells were lentivirally transduced with human CSF1R and stable cell lines were generated. Nearly all transduced cells expressed high levels of CSF1R. Cells were washed with PBS containing 0.5% BSA and 0.1% sodium azide (staining buffer) and added to 96-well V-bottom plates with 100,000 cells/well. Human anti-CSF1R monovalent antibodies were added to the cells in 2.5 fold serial dilutions and incubated for 2 hour at room temperature. The plates were washed twice with staining buffer. The secondary antibody against human Fc conjugated to APC was added at 1:200 dilution (1.5 mg/ml stock) and incubated with the cells for 1 hour at 4° C. followed by washing with staining buffer. Cells were subsequently stained with a live/dead dye to exclude any dying cells and were fixed for 10 minutes with 4% paraformaldehyde at room temperature. The plates were read on CytoFLEX LS (Beckman Coulter). Data was calculated as the percent-APC positive population.

T1 sequence (P07333 20-517): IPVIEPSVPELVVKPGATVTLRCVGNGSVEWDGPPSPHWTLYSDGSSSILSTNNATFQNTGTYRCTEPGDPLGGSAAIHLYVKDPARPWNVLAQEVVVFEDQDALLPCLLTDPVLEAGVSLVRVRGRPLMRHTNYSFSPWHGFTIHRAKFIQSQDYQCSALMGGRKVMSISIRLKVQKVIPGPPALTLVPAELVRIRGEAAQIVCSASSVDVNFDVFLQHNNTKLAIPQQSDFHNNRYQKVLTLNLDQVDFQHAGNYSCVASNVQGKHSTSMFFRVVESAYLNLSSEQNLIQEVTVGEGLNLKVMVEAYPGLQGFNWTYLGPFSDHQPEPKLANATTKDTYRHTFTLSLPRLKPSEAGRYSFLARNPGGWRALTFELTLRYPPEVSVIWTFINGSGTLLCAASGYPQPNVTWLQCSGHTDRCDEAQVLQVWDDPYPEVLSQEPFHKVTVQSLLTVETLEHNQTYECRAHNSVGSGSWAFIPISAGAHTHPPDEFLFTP

B1: BIM0549 (antibody, human IgG1, lambda)
heavy: EVQLVESGGGLVQPGGSLRLSCAASGFTFSNDEMNWIRQAPGKGLEWVSYISSRSSTIYYADAVKGRFTISRDNARNSLYLQMNSLRAEDTAVYYCARSSDGSTSFDYWGQGTLVTVSSASTKGPSVFPLAPSSKSTSGGTAALGCLVKDYFPEPVTVSWNSGALTSGVHTFPAVLQSSGLYSLSSVVTVPSSSLGTQTYICNVNHKPSNTKVDKRVEPKSCDKTHTCPPCPAPELLGGPSVFLFPPKPKDTLMISRTPEVTCVVVDVSHEDPEVKFNWYVDGVEVHNAKTKPREEQYNSTYRVVSVLTVLHQDWLNGKEYKCKVSNKALPAPIEKTISKAKGQPREPQVCTLPPSREEMTKNQVSLSCAVKGFYPSDIAVEWESNGQPENNYKTTPPVLDSDGSFFLVSKLTVDKSRWQQGNVFSCSVMHEALHNHYTQKSLSLSPGK
light: QLVLTQPPSVSGAPGQRVTISCTGSSSNIGAGYDVHWYQQLPGTAPKLLIYGNSNRPSGVPDRFSGSKSGTSASLAITGLQAEDEADYYCQSYDSSLSEEVFGGGTKLTVLGQPKANPTVTLFPPSSEELQANKATLVCLISDFYPGAVTVAWKADGSPVKAGVETTKPSKQSNNKYAASSYLSLTPEQWKSHRSYSCQVTHEGSTVEKTVAPTECS
chain: not shown
notes: Half-arm (monovalent) anti-human CSF1R antibody, three chains as BIM0542; Heavy chain entry ends in X = K or absent; also called multispecific molecule 77; aCSF1R BI117 A6-R3B half-arm antibody
For the molecule B1, the binding result with human CSF1R-Fc ECD and with human CSF1R was “binds” in each case.

B2: BIM0553 (antibody, human IgG1, lambda)
heavy: EVQLVESGGGLVQPGGSLRLSCAASGFTFSNDEMNWIRQAPGKGLEWVSYISSRSSTIYYADAVKGRFTISRDNARNSLYLQMNSLRAEDTAVYYCARGVDGDFSFDFWGQGTLVTVSSASTKGPSVFPLAPSSKSTSGGTAALGCLVKDYFPEPVTVSWNSGALTSGVHTFPAVLQSSGLYSLSSVVTVPSSSLGTQTYICNVNHKPSNTKVDKRVEPKSCDKTHTCPPCPAPELLGGPSVFLFPPKPKDTLMISRTPEVTCVVVDVSHEDPEVKFNWYVDGVEVHNAKTKPREEQYNSTYRVVSVLTVLHQDWLNGKEYKCKVSNKALPAPIEKTISKAKGQPREPQVCTLPPSREEMTKNQVSLSCAVKGFYPSDIAVEWESNGQPENNYKTTPPVLDSDGSFFLVSKLTVDKSRWQQGNVFSCSVMHEALHNHYTQKSLSLSPGK
light: QLVLTQPPSVSGAPGQRVTISCTGSSSNIGAGYDVHWYQQLPGTAPKLLIYGNSNRPSGVPDRFSGSKSGTSASLAITGLQAEDEADYYCQSYDSSLSEEVFGGGTKLTVLGQPKANPTVTLFPPSSEELQANKATLVCLISDFYPGAVTVAWKADGSPVKAGVETTKPSKQSNNKYAASSYLSLTPEQWKSHRSYSCQVTHEGSTVEKTVAPTECS
chain: not shown
notes: Half-arm (monovalent) anti-human CSF1R antibody, three chains as BIM0542; Heavy chain entry ends in X = K or absent; also called multispecific molecule 81; aCSF1R BI117 C5-R3B half-arm antibody
On to B2, for which the binding result with human CSF1R-Fc ECD and in the experiment with human CSF1R was “binds” in each case.

B3: BIM0566 (antibody, human IgG1, lambda)
heavy: EVQLVESGGGLVQPGGSLRLSCAASGFTFSNDEMNWIRQAPGKGLEWVSYISSRSSTIYYADAVKGRFTISRDNARNSLYLQMNSLRAEDTAVYYCARSGRLDGSFDYWGQGTLVTVSSASTKGPSVFPLAPSSKSTSGGTAALGCLVKDYFPEPVTVSWNSGALTSGVHTFPAVLQSSGLYSLSSVVTVPSSSLGTQTYICNVNHKPSNTKVDKRVEPKSCDKTHTCPPCPAPELLGGPSVFLFPPKPKDTLMISRTPEVTCVVVDVSHEDPEVKFNWYVDGVEVHNAKTKPREEQYNSTYRVVSVLTVLHQDWLNGKEYKCKVSNKALPAPIEKTISKAKGQPREPQVCTLPPSREEMTKNQVSLSCAVKGFYPSDIAVEWESNGQPENNYKTTPPVLDSDGSFFLVSKLTVDKSRWQQGNVFSCSVMHEALHNHYTQKSLSLSPGK
light: QLVLTQPPSVSGAPGQRVTISCTGSSSNIGAGYDVHWYQQLPGTAPKLLIYGNSNRPSGVPDRFSGSKSGTSASLAITGLQAEDEADYYCQSYDSSLSEEVFGGGTKLTVLGQPKANPTVTLFPPSSEELQANKATLVCLISDFYPGAVTVAWKADGSPVKAGVETTKPSKQSNNKYAASSYLSLTPEQWKSHRSYSCQVTHEGSTVEKTVAPTECS
chain: not shown
notes: Half-arm (monovalent) anti-human CSF1R antibody, three chains as BIM0542; Heavy chain entry ends in X = K or absent; also called multispecific molecule 85; aCSF1R BI117 C6-R3B half-arm antibody
For B3, the binding result with human CSF1R-Fc ECD and with human CSF1R was “binds” in each case.

B4: BIM0550 (antibody, human IgG1, lambda)
heavy: EVQLVESGGGLVQPGGSLRLSCAASGFTFSNDEMNWIRQAPGKGLEWVSYISSSSSTIYYADAVTGRFTISRDNARNSLYLQMNSLRAEDTAVYYCARGVDGDFSFDYWGQGTLVTVSSASTKGPSVFPLAPSSKSTSGGTAALGCLVKDYFPEPVTVSWNSGALTSGVHTFPAVLQSSGLYSLSSVVTVPSSSLGTQTYICNVNHKPSNTKVDKRVEPKSCDKTHTCPPCPAPELLGGPSVFLFPPKPKDTLMISRTPEVTCVVVDVSHEDPEVKFNWYVDGVEVHNAKTKPREEQYNSTYRVVSVLTVLHQDWLNGKEYKCKVSNKALPAPIEKTISKAKGQPREPQVCTLPPSREEMTKNQVSLSCAVKGFYPSDIAVEWESNGQPENNYKTTPPVLDSDGSFFLVSKLTVDKSRWQQGNVFSCSVMHEALHNHYTQKSLSLSPGK
light: QLVLTQPPSVSGAPGQRVTISCTGSSSNIGAGYDVHWYQQLPGTAPKLLIYGNSNRPSGVPDRFSGSKSGTSASLAITGLQAEDEADYYCQSYDSSLSEEVFGGGTKLTVLGQPKANPTVTLFPPSSEELQANKATLVCLISDFYPGAVTVAWKADGSPVKAGVETTKPSKQSNNKYAASSYLSLTPEQWKSHRSYSCQVTHEGSTVEKTVAPTECS
chain: not shown
notes: Half-arm (monovalent) anti-human CSF1R antibody, three chains as BIM0542; Heavy chain entry ends in X = K or absent; also called multispecific molecule 78; aCSF1R BI117 A11-R3B half-arm antibody
Take B4: the binding result with human CSF1R-Fc ECD and with human CSF1R was “binds” in each case.

B5: BIM0551 (antibody, human IgG1, lambda)
heavy: EVQLVESGGGLVQPGGSLRLSCAASGFTFSNDEMNWIRQAPGKGLEWVSYISSRSSTIYYADAVKGRFTISRDNARNSLYLQMNSLRAEDTAVYYCARNSDSDGSFDIWGQGTLVTVSSASTKGPSVFPLAPSSKSTSGGTAALGCLVKDYFPEPVTVSWNSGALTSGVHTFPAVLQSSGLYSLSSVVTVPSSSLGTQTYICNVNHKPSNTKVDKRVEPKSCDKTHTCPPCPAPELLGGPSVFLFPPKPKDTLMISRTPEVTCVVVDVSHEDPEVKFNWYVDGVEVHNAKTKPREEQYNSTYRVVSVLTVLHQDWLNGKEYKCKVSNKALPAPIEKTISKAKGQPREPQVCTLPPSREEMTKNQVSLSCAVKGFYPSDIAVEWESNGQPENNYKTTPPVLDSDGSFFLVSKLTVDKSRWQQGNVFSCSVMHEALHNHYTQKSLSLSPGK
light: QLVLTQPPSVSGAPGQRVTISCTGSSSNIGAGYDVHWYQQLPGTAPKLLIYGNSNRPSGVPDRFSGSKSGTSASLAITGLQAEDEADYYCQSYDSSLSEEVFGGGTKLTVLGQPKANPTVTLFPPSSEELQANKATLVCLISDFYPGAVTVAWKADGSPVKAGVETTKPSKQSNNKYAASSYLSLTPEQWKSHRSYSCQVTHEGSTVEKTVAPTECS
chain: not shown
notes: Half-arm (monovalent) anti-human CSF1R antibody, three chains as BIM0542; Heavy chain entry ends in X = K or absent; also called multispecific molecule 79; aCSF1R BI117 B2-R3B half-arm antibody
As for B5, the binding result in the experiment with human CSF1R-Fc ECD and with human CSF1R was “binds” each time.

B6: BIM0567 (antibody, human IgG1, lambda)
heavy: EVQLVESGGGLVQPGGSLRLSCAASGFTFSNDEMNWIRQAPGKGLEWVSYISSRSSTIYYADAVKGRFTISRDNARNSLYLQMNSLRAEDTAVYYCARGVESDFSFDYWGQGTLVTVSSASTKGPSVFPLAPSSKSTSGGTAALGCLVKDYFPEPVTVSWNSGALTSGVHTFPAVLQSSGLYSLSSVVTVPSSSLGTQTYICNVNHKPSNTKVDKRVEPKSCDKTHTCPPCPAPELLGGPSVFLFPPKPKDTLMISRTPEVTCVVVDVSHEDPEVKFNWYVDGVEVHNAKTKPREEQYNSTYRVVSVLTVLHQDWLNGKEYKCKVSNKALPAPIEKTISKAKGQPREPQVCTLPPSREEMTKNQVSLSCAVKGFYPSDIAVEWESNGQPENNYKTTPPVLDSDGSFFLVSKLTVDKSRWQQGNVFSCSVMHEALHNHYTQKSLSLSPGK
light: QLVLTQPPSVSGAPGQRVTISCTGSSSNIGAGYDVHWYQQLPGTAPKLLIYGNSNRPSGVPDRFSGSKSGTSASLAITGLQAEDEADYYCQSYDSSLSEEVFGGGTKLTVLGQPKANPTVTLFPPSSEELQANKATLVCLISDFYPGAVTVAWKADGSPVKAGVETTKPSKQSNNKYAASSYLSLTPEQWKSHRSYSCQVTHEGSTVEKTVAPTECS
chain: not shown
notes: Half-arm (monovalent) anti-human CSF1R antibody, three chains as BIM0542; Heavy chain entry ends in X = K or absent; also called multispecific molecule 86; aCSF1R BI117 D11-R3B half-arm antibody
Regarding B6, the binding result with human CSF1R-Fc ECD and with human CSF1R was “binds” each time.

B7: BIM0555 (antibody, human IgG1, lambda)
heavy: not shown
light: SLVLTQPPSVSVAPGKTARITCGGNNIGSKSVHWYQQKPGQAPVLVVYDDSDRPSGIPERFSGSNSGNTATLTISRVEAGDEADYYCQVWDSSSDHVVFGGGTQLTVLGQPKANPTVTLFPPSSEELQANKATLVCLISDFYPGAVTVAWKADGSPVKAGVETTKPSKQSNNKYAASSYLSLTPEQWKSHRSYSCQVTHEGSTVEKTVAPTECS
chain: not shown
notes: Half-arm (monovalent) anti-human CSF1R antibody, three chains as BIM0542; Heavy chain entry ends in X = K or absent; also called multispecific molecule 83; aCSF1R BI123 B6-R3B half-arm antibody
With B7, the binding result with human CSF1R-Fc ECD and with human CSF1R was “binds” throughout.

B8: BIM0556 (antibody, human IgG1, lambda)
heavy: not shown
light: SLVLTQPPSVSVAPGKTARITCGGNNIGSKSVHWYQQKPGQAPVLVVYDDSDRPSGIPERFSGSNSGNTATLTISRVEAGDEADYYCQVWDSSSDHVVFGGGTQLTVLGQPKANPTVTLFPPSSEELQANKATLVCLISDFYPGAVTVAWKADGSPVKAGVETTKPSKQSNNKYAASSYLSLTPEQWKSHRSYSCQVTHEGSTVEKTVAPTECS
chain: not shown
notes: Half-arm (monovalent) anti-human CSF1R antibody, three chains as BIM0542; Heavy chain entry ends in X = K or absent; also called multispecific molecule 84; aCSF1R BI123 C1-R3B half-arm antibody
Turning to B8, the binding result with human CSF1R-Fc ECD and with human CSF1R was “binds” in each case.

These data come from patent US20220242957A1 (MARENGO THERAPEUTICS, published 2022).
